In patent US20220135687A1:

Legend:
[1] = target: cynomolgus PD-L1 Fc-fusion protein (cynomolgus) (UniProt G7PSE7); experiment: SPR, cyno PD-L1-Fc immobilised, antibody analyte
[2] = target: cynomolgus PD-L1 overexpressing stable cell line (cynomolgus) (UniProt G7PSE7); experiment: FACS, cynomolgus PD-L1 cell line
Sequence of cynomolgus PD-L1 overexpressing stable cell line (cynomolgus) (G7PSE7 entry or part of it limits assumed): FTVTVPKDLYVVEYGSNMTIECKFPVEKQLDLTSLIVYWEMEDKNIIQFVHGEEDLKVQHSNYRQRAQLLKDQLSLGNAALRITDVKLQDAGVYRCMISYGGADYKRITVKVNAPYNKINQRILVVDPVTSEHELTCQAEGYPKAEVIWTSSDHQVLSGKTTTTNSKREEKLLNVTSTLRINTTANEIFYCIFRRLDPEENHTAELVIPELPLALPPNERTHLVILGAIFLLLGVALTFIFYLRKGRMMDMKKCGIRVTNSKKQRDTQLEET

Sequence of Durvalumab (antibody) (VH): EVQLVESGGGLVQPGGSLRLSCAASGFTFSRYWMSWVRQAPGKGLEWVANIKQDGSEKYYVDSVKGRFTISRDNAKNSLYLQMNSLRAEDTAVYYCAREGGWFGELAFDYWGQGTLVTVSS
Sequence of Durvalumab (antibody) (VL): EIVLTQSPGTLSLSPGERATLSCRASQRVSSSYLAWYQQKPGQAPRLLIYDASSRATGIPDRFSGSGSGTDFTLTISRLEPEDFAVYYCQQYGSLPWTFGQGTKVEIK
Sequence of cynomolgus PD-L1 Fc-fusion protein (cynomolgus) (G7PSE7 entry or part of it limits assumed): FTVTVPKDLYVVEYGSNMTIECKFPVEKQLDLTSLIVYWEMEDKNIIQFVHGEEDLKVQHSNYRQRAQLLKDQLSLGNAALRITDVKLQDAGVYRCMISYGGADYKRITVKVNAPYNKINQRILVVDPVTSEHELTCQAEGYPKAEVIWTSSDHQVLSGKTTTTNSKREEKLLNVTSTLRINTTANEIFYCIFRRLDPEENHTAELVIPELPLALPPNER

Kd [1]: 1.1 nM
EC50 [2]: 3.07 nM
Top (best-fit value) [2]: 8220
Substance: Durvalumab (antibody)
